The labels stand for the following.
T1: EsCas13d, nuclease-dead (Eubacterium siraeum, UniProt B0MS50, R295A;H300A;R849A;H854A)
T1 sequence: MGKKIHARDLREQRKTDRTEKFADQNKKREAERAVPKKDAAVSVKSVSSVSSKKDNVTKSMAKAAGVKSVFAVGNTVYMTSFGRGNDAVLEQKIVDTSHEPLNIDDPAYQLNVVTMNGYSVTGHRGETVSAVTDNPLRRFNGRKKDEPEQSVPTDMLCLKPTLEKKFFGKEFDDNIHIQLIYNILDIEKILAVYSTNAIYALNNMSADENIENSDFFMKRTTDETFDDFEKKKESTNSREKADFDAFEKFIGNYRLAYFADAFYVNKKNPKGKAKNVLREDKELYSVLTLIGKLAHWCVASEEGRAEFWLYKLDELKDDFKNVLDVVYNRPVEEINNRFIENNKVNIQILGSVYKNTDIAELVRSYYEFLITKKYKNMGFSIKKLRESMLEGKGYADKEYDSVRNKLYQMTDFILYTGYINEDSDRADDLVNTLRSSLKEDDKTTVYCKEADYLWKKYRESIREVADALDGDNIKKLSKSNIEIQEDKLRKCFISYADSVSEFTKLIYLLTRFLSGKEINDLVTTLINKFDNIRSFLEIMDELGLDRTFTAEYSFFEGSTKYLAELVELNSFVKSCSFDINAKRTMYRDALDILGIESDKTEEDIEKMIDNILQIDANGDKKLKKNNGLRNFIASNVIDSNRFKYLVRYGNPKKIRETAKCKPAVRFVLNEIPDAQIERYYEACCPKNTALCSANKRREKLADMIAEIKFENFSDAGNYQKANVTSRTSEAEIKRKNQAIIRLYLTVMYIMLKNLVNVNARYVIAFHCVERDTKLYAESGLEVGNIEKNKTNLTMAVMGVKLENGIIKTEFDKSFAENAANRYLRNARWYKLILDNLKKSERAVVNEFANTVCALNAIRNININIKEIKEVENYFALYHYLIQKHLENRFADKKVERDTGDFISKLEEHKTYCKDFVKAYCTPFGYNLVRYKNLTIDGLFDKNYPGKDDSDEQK

B1: target 1 insG 3' of 11,insG 3' of 10 (mixed)
RNA 1: CACCCGUGCAAAAAUGCAGGGGUCUAAAACUGAGCGGAUAACCUCUCUAUGG
RNA 2: GGGAAUGGAUCCACAUCUACGAAUUCGUACCAUAGAGAGGUGUGAUCCGCUCACCGAGAUCGGAAGAGCACACGU
B2: target 1 insU 3' of 15,insC 3' of 8 (mixed)
RNA 1: B1 RNA 1
RNA 2: B1 RNA 2 with A38U, G39A, U41G, G42U, G44A, A45U, U46C
B3: target 1 insC 3' of 11,insU 3' of 2 (mixed)
RNA 1: B1 RNA 1
RNA 2: B1 RNA 2 with G42C, G44A, A45U, U46C, C48G, G49C, C50U, U51C, C52U
B4: target 1 C6A,A20U (mixed)
RNA 1: B1 RNA 1
RNA 2: GGGAAUGGAUCCACAUCUACGAAUUCGUACCUUAGAGAGGUUAUCAGCUCACCGAGAUCGGAAGAGCACACGU
B5: target 1 insA 3' of 21,insG 3' of 14 (mixed)
RNA 1: B1 RNA 1
RNA 2: B1 RNA 2 with U33A, A34U, G35A, A36G, G37A, A38G, G39A, U41G, G44U
B6: target 1 insU 3' of 18,insG 3' of 2 (mixed)
RNA 1: B1 RNA 1
RNA 2: GGGAAUGGAUCCACAUCUACGAAUUCGUACCAUAUGAGAGGUUAUCCGCUCGACCGAGAUCGGAAGAGCACACGU
B7: target 1 del13,del22 (mixed)
RNA 1: B1 RNA 1
RNA 2: GGGAAUGGAUCCACAUCUACGAAUUCGUACAUAGAGAGUUAUCCGCUCACCGAGAUCGGAAGAGCACACGU
B8: target 1 C7U,U10C (mixed)
RNA 1: B1 RNA 1
RNA 2: B4 RNA 2 with U32A, U42C, C45U, A46C
B9: target 1 insU 3' of 6,insG 3' of 4 (mixed)
RNA 1: B1 RNA 1
RNA 2: B1 RNA 2 with G42U, U43A, G44U, A45C, U46C, C47U, C48G, G49C, C50G
B10: target 1 U3C,C7G (mixed)
RNA 1: B1 RNA 1
RNA 2: B4 RNA 2 with U32A, C45G, A46C, U49C
B11: target 1 del9 (mixed)
RNA 1: B1 RNA 1
RNA 2: GGGAAUGGAUCCACAUCUACGAAUUCGUACCAUAGAGAGGUUUCCGCUCACCGAGAUCGGAAGAGCACACGU
B12: target 1 C4A,U19G (mixed)
RNA 1: B1 RNA 1
RNA 2: B4 RNA 2 with U32A, U33G, A46C, C48A
B13: target 1 G5C,A16C (mixed)
RNA 1: B1 RNA 1
RNA 2: B4 RNA 2 with U32A, A36C, A46C, G47C
B14: target 1 U8C,U10A (mixed)
RNA 1: B1 RNA 1
RNA 2: B4 RNA 2 with U32A, U42A, U44C, A46C
B15: target 1 G12U,G17C (mixed)
RNA 1: B1 RNA 1
RNA 2: B4 RNA 2 with U32A, G35C, G40U, A46C
B16: target 1 C4U,U8A (mixed)
RNA 1: B1 RNA 1
RNA 2: B4 RNA 2 with U32A, U44A, A46C, C48U
B17: target 1 insA 3' of 22,insU 3' of 20 (mixed)
RNA 1: B1 RNA 1
RNA 2: B1 RNA 2 with C31A, A32C, U33A, A34U, G35U, G40A, U41G, G44U
B18: target 1 A20U,C22U (mixed)
RNA 1: B1 RNA 1
RNA 2: B4 RNA 2 with C30U, A46C
B19: target 1 insC 3' of 20,insG 3' of 8 (mixed)
RNA 1: B1 RNA 1
RNA 2: B6 RNA 2 with U33C, A34U, U35A, C46G, G48C, C49G, U50C, C51U, G52C
B20: target 1 U10C (mixed)
RNA 1: B1 RNA 1
RNA 2: B4 RNA 2 with U32A, U42C, A46C
B21: target 1 C6G,U19G (mixed)
RNA 1: B1 RNA 1
RNA 2: B4 RNA 2 with U32A, U33G, A46G
B22: target 1 U3A,A18C (mixed)
RNA 1: B1 RNA 1
RNA 2: B4 RNA 2 with U32A, A34C, A46C, U49A
B23: target 1 U8C,G13U (mixed)
RNA 1: B1 RNA 1
RNA 2: B4 RNA 2 with U32A, G39U, U44C, A46C
B24: target 1 insU 3' of 14,insG 3' of 6 (mixed)
RNA 1: B1 RNA 1
RNA 2: B1 RNA 2 with G39U, U41G, G42U, G44A, A45U, U46C, C48G
B25: target 1 U3G,A9G (mixed)
RNA 1: B1 RNA 1
RNA 2: B4 RNA 2 with U32A, A43G, A46C, U49G
B26: target 1 U10A,A16G (mixed)
RNA 1: B1 RNA 1
RNA 2: B4 RNA 2 with U32A, A36G, U42A, A46C
B27: target 1 A1C,U10C (mixed)
RNA 1: B1 RNA 1
RNA 2: B4 RNA 2 with U32A, U42C, A46C, A51C
B28: target 1 insG 3' of 6,insU 3' of 6 (mixed)
RNA 1: B1 RNA 1
RNA 2: B1 RNA 2 with G42U, U43A, G44U, A45C, U46C, C47G, C48U
B29: target 1 insU 3' of 9,insA 3' of 2 (mixed)
RNA 1: B1 RNA 1
RNA 2: B6 RNA 2 with U35G, G36A, A37G, G38A, A39G, G41U, U43A, A44U, G52A
B30: target 1 insG 3' of 22,insA 3' of 2 (mixed)
RNA 1: B1 RNA 1
RNA 2: B6 RNA 2 with C31G, A32C, U33A, A34U, U35A, G52A
B31: target 1 C2U,U19C (mixed)
RNA 1: B1 RNA 1
RNA 2: B4 RNA 2 with U32A, U33C, A46C, C50U
B32: target 1 A1U,U10C (mixed)
RNA 1: B1 RNA 1
RNA 2: B4 RNA 2 with U32A, U42C, A46C, A51U

Positions count from the first letter of the chain named. Numbers in names are those of the source.

This series has as its target T1, EsCas13d, nuclease-dead. The series can be described thus: crRNA (strand 1, pre-loaded); Mg2+; 40 mM Tris-HCl pH 7.5, 150 mM NaCl, 6 mM MgCl2, 1 mM DTT, 0.1% Tween-20, 0.2 mg/ml BSA; 25 C; 10 min per concentration, then washed. The note with it: tags: His6-TwinStrep-SUMO cleaved; N-terminal SNAP kept (SNAP-Surface 488); label: 3' end held by stalled T7 RNA polymerase.
One may read the Kd as the constant that tells how readily two partners part at equilibrium. Read a low Kd as higher affinity. On to B1, for which the Kd was found to be 30 ± 4 nM.

B2 had a Kd of 42 ± 6 nM.

Molecule B3 returned a Kd of 73 ± 21 nM.

As for B4, the Kd is 35.2 ± 2.1 nM.

B5 registered a dissociation constant (Kd) of 23.8 ± 2.3 nM.

On to B6, for which the dissociation constant Kd was determined as 26.4 ± 1.7 nM.

Molecule B7 showed a dissociation constant (Kd) of 30.9 ± 3 nM.

Molecule B8 had a Kd of 20.9 ± 1.5 nM.

The molecule B9 returned a Kd of 7.21 ± 0.28 nM.

The molecule B10 gave a dissociation constant (Kd) of 8.47 ± 0.27 nM.

B11 showed a Kd of 11.5 ± 0.6 nM.

B12 came in with a Kd of 49 ± 19 nM.

In turn, B13 came in with a dissociation constant Kd of 88 ± 15 nM.

In turn, B14 had a dissociation constant Kd of 11 ± 0.5 nM.

As for B15, the Kd was around 43 nM.

In turn, B16 returned an equilibrium dissociation constant (Kd) of 19 ± 1.1 nM.

Regarding B17, binding was put at a Kd of 16.7 ± 1 nM.

As for B18, the equilibrium dissociation constant (Kd) worked out at 45 ± 8 nM.

In turn, B19 registered a Kd of 8.6 ± 0.4 nM.

The molecule B20 displayed a dissociation constant Kd of 18 ± 1.1 nM.

In turn, B21 displayed a Kd of 42 ± 5 nM.

The molecule B22 gave a Kd of 50 ± 6 nM.

B23: the dissociation constant Kd is 61 ± 11 nM.

In the case of B24, binding was characterised by a dissociation constant (Kd) of 40 ± 6 nM.

B25 had a Kd of 8.3 ± 0.8 nM.

Turning to B26, the affinity, expressed as Kd, was 38.4 ± 2.1 nM.

In turn, B27 had a dissociation constant Kd of 22.2 ± 2.9 nM.

For B28, the affinity, expressed as Kd, was 9.9 ± 0.7 nM.

B29: the Kd came out at 19.8 ± 1.9 nM.

On to B30, for which the Kd was determined as 28.8 ± 2.3 nM.

B31 registered a Kd of 21.2 ± 1.5 nM.

As for B32, binding was characterised by a dissociation constant (Kd) of 20 ± 1.7 nM.

For the origin of these results see PMC10786891, “Massively parallel profiling of RNA-targeting CRISPR-Cas13d”.
